Publication PMC2815668, “Pseudo-merohedral twinning and noncrystallographic symmetry in orthorhombic crystals of SIVmac239 Nef core domain bound to different-length TCRζ fragments” (Acta Crystallographica Section D: Biological Crystallography, 2010)

Target: T1, SIVmac239 Nef core domain, GS-Nef (Asp95–Ser235) (simian immunodeficiency virus, isolate …, UniProt P31818 95-235)
T1 construct: source: E. coli BL21 (DE3), purified (Ni-NTA under 8 M urea, dialysis, thrombin cleavage, anion exchange, SEC)
T1 sequence: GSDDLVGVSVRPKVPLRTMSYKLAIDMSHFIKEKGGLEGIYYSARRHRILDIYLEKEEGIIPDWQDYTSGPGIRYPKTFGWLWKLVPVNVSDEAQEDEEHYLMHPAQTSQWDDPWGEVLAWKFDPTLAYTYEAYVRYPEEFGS
Assay: not stated; unpublished results; stoichiometry of the complex
Conditions: both partners purified

B1: TCRζDP1 (Leu51–Asp93), N-terminal acid-cleavage fragment of the TCRζ cytoplasmic domain (domain or fragment)
chain: LRVKFSRSADAPAYQQGQNQLYNELNLGRREEYDVLDKRRGRD
notes: also called longer TCRζ polypeptide; source: acid cleavage of purified TCRζcyt (30% acetonitrile, 0.5% TFA, 48 h, 323 K), isolated by reverse-phase chromatography
**Q.** B1 was tested. Which “stoichiometry N” value did it give?
**A.** 1
